Measurements published in EP4778941A1 (Jiangsu Hengrui Pharmaceuticals Co., Ltd., dated 2025).
Where two headings read alike, the source gives them in different places.

Experiments:
[1] = biological target: T1, Human MET protein on the cell surface (human, UniProt P08581 25-1390); experiment: FACS on NCI-H1703 cells (MET single-positive)
T1 construct: whole, on cells; also called MET single-positive cells (NCI-H1975, NCI-H1703)

[2] = biological target: T2, Human HER3 and MET proteins together on HER3/MET double-positive cells (human, UniProt P21860 20-1342; P08581 25-1390); experiment: cell-based or functional assay
[3] = biological target: T3, Human HER3 protein on the cell surface (human, UniProt P21860 20-1342); experiment: cell-based or functional assay
[4] = biological target: T1, Human MET protein on the cell surface; experiment: cell-based or functional assay
[5] = biological target: T2, Human HER3 and MET proteins together on …; experiment: cell-based or functional assay; remark: listed apart in the source
[6] = biological target: T2, Human HER3 and MET proteins together on …; experiment: FACS on HCC827 Osimertinib-resistant cells (HER3/MET double-positive)
[7] = biological target: T2, Human HER3 and MET proteins together on …; experiment: cell-based or functional assay; remark: listed apart in the source
[8] = biological target: T3, Human HER3 protein on the cell surface; experiment: FACS on MDA-MB-453 cells (HER3 single-positive)

T1 sequence (P08581 25-1390): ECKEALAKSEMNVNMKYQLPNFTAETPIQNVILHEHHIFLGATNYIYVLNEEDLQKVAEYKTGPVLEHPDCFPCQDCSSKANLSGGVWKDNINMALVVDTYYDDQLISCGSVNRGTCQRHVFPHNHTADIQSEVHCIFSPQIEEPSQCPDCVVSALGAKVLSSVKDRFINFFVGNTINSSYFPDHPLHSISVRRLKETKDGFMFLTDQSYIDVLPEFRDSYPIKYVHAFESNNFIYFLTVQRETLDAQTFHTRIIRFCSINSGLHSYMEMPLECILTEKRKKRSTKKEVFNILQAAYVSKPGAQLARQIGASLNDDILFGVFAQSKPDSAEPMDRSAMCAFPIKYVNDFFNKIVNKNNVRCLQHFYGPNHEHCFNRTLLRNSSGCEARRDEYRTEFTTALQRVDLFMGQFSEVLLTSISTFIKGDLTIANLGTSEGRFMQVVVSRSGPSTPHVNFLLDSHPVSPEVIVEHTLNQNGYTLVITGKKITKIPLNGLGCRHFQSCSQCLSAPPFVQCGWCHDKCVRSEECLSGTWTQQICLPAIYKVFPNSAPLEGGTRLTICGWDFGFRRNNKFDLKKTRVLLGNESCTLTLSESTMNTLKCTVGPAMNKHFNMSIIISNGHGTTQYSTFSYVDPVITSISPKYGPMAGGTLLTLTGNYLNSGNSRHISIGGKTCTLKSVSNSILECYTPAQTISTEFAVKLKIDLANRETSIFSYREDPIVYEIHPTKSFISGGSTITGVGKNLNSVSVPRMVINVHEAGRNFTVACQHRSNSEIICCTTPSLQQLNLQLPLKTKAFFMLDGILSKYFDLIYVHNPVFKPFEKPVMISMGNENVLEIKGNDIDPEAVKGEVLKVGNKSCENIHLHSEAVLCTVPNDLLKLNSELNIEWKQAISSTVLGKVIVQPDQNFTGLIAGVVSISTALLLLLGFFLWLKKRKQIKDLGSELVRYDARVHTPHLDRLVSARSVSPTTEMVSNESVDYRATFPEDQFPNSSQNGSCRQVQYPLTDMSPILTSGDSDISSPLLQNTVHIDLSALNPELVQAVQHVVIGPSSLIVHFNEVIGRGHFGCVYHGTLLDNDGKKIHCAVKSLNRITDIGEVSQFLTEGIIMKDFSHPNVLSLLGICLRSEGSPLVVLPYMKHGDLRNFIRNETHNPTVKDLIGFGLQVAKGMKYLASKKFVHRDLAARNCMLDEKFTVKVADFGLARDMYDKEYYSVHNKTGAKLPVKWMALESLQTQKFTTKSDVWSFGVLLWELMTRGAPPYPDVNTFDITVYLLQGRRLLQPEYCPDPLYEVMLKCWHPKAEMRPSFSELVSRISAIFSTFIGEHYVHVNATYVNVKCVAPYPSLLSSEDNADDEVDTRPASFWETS

EC50 [1]: 1.03 nM
Maximum fluorescence value [1]: 2430
Endocytosis ratio at 0 h (FACS) [5]: 0%
Endocytosis ratio at 0.5 h (FACS) [5]: 67.9%
Endocytosis ratio at 2 h (FACS) [5]: 83.2%
Endocytosis ratio at 6 h (FACS) [5]: 84.1%
EC50 [6]: 0.52 nM
Maximum fluorescence value [6]: 2470
EC50 [8]: 2.72 nM
Maximum fluorescence value [8]: 1950
B1: Anti-HER3/MET bispecific antibody 2232-01 (A13-A) (bispecific antibody, human IgG1, kappa)
heavy 1: not shown
light 1: DIQMTQSPSSVSASVGDRVTITCRASQGINTWLAWYQQKPGKAPKLLIYAASSLKSGVPSRFSGSGSGADFTLTISSLQPEDFATYYCQQANSFPLTFGGGTKVEIKGGGGSGIPPKIECLPIDISIDEGKVLTVASAFTGEPTPEVTWSTGGRKIHSQEQGRFHIENTDDSTTLTIKDVQKQDGGLYTLTLRNEFGSDSATVNIHIRSI
heavy 2: QVQLVQSGGGLVQPGRSLRLSCAASGFTFDDYAMHWVRQAPGKGLEWVSGISWNSGSIGYADSVKGRFTISRDNAKNSLYLQMNSLRAEDTALYYCAKEGLPGLDYWGQGTLVTVSSASTKGPSVFPLAPSSKSTSGGTAALGCLVKDYFPEPVTVSWNSGALTSGVHTFPAVLQSSGLYSLSSVVTVPSSSLGTQTYICNVNHKPSNTKVDKKVEPKSCDKTHTCPPCPAPELLGGPSVFLFPPKPKDTLMISRTPEVTCVVVDVSHEDPEVKFNWYVDGVEVHNAKTKPREEQYNSTYRVVSVLTVLHQDWLNGKEYKCKVSNKALPAPIEKTISKAKGQPREPQVCTLPPSREEMTKNQVSLSCAVKGFYPSDIAVEWESNGQPENNYKTTPPVLDSDGSFFLVSKLTVDKSRWQQGNVFSCSVMHEALHNHYTQKSLSLSPGK
light 2: DIQMTQSPSSLSASIGDRATITCRASQHVGTYLNWYQQKPGKTPKLLISGAANLQSGVPSRFSGSGSGTDFTLTISSLQPEDFATYYCQQSYNTPPFSFGQGTKVEIKRTVAAPSVFIFPPSDEQLKSGTASVVCLLNNFYPREAKVQWKVDNALQSGNSQESVTEQDSKDSTYSLSSTLTLSKADYEKHKVYACEVTHQGLSSPVTKSFNRGEC
notes: Four chains: H1 = A13 VH-GGGGS-Obscurin-O chain-IgG1 Fc1 (S354C/T366W); L1 = A13 VL-GGGGS-Titin-T chain; H2 = antibody A VH-CH1-IgG1 Fc2 (Y349C/T366S/L368A/Y407V); L2 = antibody A VL-CL
Minimum cell viability (%) [2]: 24.7%
Minimum cell viability (%) [3]: 21.7%
Minimum cell viability (%) [4]: 0.6%
Minimum cell viability (%) [7]: 12.4%
